In patent US5750106:

Target: gH glycoprotein of CMV (82,000 dalton component) (human cytomegalovirus (CMV), strain not stated)

B1: human monoclonal antibody SDZ MSL 109 (antibody, V domains shown)
VH: EEQVLESGGGLVKPGGSLRLSCAASGFTFSPYSVFWVRQAPGKGLEWVSSINSDSTYKYYADSVKGRFTISRDNAENSIFLQMNSLRAEDTAVYYCARDRSYYAFSSGSLSDYYYGLDVWGQG
VL: DIVMTQSPLSLSVTPGEPASISCRSSQSLLHTNGYNYLDWYVQKPGQSPQLLIYLASNRASGVPDRFSGSGSGTDFTLKISRVETEDVGVYYCMQALQIPRTFGQGTKVEIKR
B1 gave a neutralizing concentration (micro-neutralization assay) of 100 ng/mL.
